Assay results published in paper PMC5623874 (Frontiers in Immunology, 2017).

Experiments:
[1] = biological target: T1, Marburgvirus (Marburg Musoke) nucleoprotein, polymeric (Marburg virus, Musoke, UniProt P27588); assay: ELISA; conditions: both partners purified
T1 construct: source: HEK 293T, transient transfection, purified (CsCl gradient)

[2] = biological target: the molecule itself; assay: transmission electron microscopy of HA-NP and sdAb mixtures

B1: anti-MARV NP sdAb C monomer (pecan126) (VHH)
VHH: KVQLQESGGGLVQVGGSLRLSCKASGFTFRSSAMGWYRRAPGKQRELVASLTTTGTADYGDFVKGRFTISRDNAENTVDLHMNSLKPEDTAVYYCHEDPYGMESLRYWGQGTQVTVSS
notes: also called anti-MARV sdAb C; source: E. coli HBV88 periplasm, purified (IMAC, gel filtration)
B1: binds [1].

B2: anti-MARV NP sdAb A monomer (pecan126) (VHH)
VHH: EVKLQESGGGLVQAGESLRLSCAVPPEVFDIRTVAWYRQVPLGKGRELLSSITPWNKTTYEDSVKDRFTISRDNAKYTVYLQMNDLKPEDTAVYYCAQGWGIASMRYWGQGTQVTVSS
notes: also called anti-MARV sdAb A; source: E. coli HBV88 periplasm, purified (IMAC, gel filtration)
B2: binds [1].

B3: HA-tagged Marburgvirus (Marburg Musoke) nucleoprotein, polymeric (natural protein)
chain: MDLHSLLELGTKPTAPHVRNKKVILFDTNHQVSICNQIIDAINSGIDLGDLLEGGLLTLCVEHYYNSDKDKFNTSPVAKYLRDAGYEFDVIKNADATRFLDVSPNEPHYSPLILALKTLESTESQRGRIGLFLSFCSLFLPKLVVGDRASIEKALRQVTVHQEQGIVTYPNHWLTTGHMKVIFGILRSSFILKFVLIHQGVNLVTGHDAYDSIISNSVGQTRFSGLLIVKTVLEFILQKTDSGVTLHPLVRTSKVKNEVASFKQALSNLARHGEYAPFARVLNLSGINNLEHGLYPQLSAIALGVATAHGSTLAGVNVGEQYQQLREAAHDAEVKLQRRHEHQEIQAIAEDDEERKILEQFHLQKTEITHSQTLAVLSQKREKLARLAAEIENNIVEDQGFKQSQNRVSQSFLNDPTPVEVTVQARPMNRPTALPPPVDDKIEHESTEDSSSSSSFVDLNDPFALLNEDEDTLDDSVMIPGTTSREFQGIPEPPRQSQDLNNSQGKQEDESTNRIKKQFLRYQELPPVQEDDESEYTTDSQESIDQPGSDNEQGVDLPPPPLYAQEKRQDPIQHPAANPQDPFGSIGDVNGDILEPIRSPSSPSAPQEDTRMREAYELSPDFTNDEDNQQNWPQRVVTKKGRTFLYPNDLLQTNPPESLITALVEEYQNPVSAKELQADWPDMSFDERRHVAMNL
notes: also called MARV HA-NP; HA-NP
B3: binds [2].

B4: anti-MARV NP sdAb B monomer (pecan126) (VHH)
VHH: KVQLQESGGGLVQAGGSLRLSCAASGGTFSINTLGWYRRAPGKEREFVARISSGGITRYADSVKGRFTISRDNGKNTVYLDMNSLKPEDTAVYYCMYRNWGGGLDVYWGQGTQVTVSS
notes: also called anti-MARV sdAb B; source: E. coli HBV88 periplasm, purified (IMAC, gel filtration)
B4: binds [1].
